Laboratory results published in patent US20200069786A1, “COMPOSITION AND PROCESS FOR PREPARING VACCINE” (TREOS BIO ZRT., priority 2018, published 2020).
Read-outs that look alike come from different tables or passages of the source.

Tests used:
[1] = test system: metastatic ovarian adenocarcinoma; test: Patient-A clinical outcome and tumor MRI; type: in vivo, human
From the text: 2017-2018: Patient-A received 8 cycles of vaccination as add-on therapy, and lived 17 months (528 days) after start of the treatment. […] They died in October 2018.
Patient' tumor MRI findings (Baseline Apr. 15, 2016) (BL: baseline for tumor response evaluation on FIG. 22) Disease was confined primarily to liver and lymph nodes. The use of MRI limits detection of lung (pulmonary) metastasis May 2016-January 2017: Olaparib treatment (FU1: follow up 1 on FIG. 22) Dec. […] Peritoneal carcinomatosis with increased amount of ascites. Progressive hepatic tumor and lymph node
Jul. 26, 2017 (after the 2nd Cycle of PIT): (FU4 on FIG. 22) Progression/Pseudo-Progression • Rapid progression in lymph nodes, hepatic, retroperitoneal and thoracic areas, significant pleural fluid and ascites. Initiate Carboplatin, Gemcitabine, Avastin. Sep. […] Nov. […] Remission in hepatic, retroperitoneal area and lymph nodes

TSA = conditions: cited from earlier work
[2] = test system: subjects of 64 clinical studies; conditions: published clinical trials, cited from earlier work; for IRR: proportion of subjects in the study population with T cell responses induced by the study vaccine
[3] = FU1, Olaparib treatment May 2016-January 2017
[4] = FU2, Dec. 25, 2016, before PIT vaccine treatment
[5] = FU3, Apr. 6, 2017, after TOPO protocol
[6] = TSA expression rate in Esophageal
[7] = TSA expression rate in HEAD and NECK
[8] = TSA expression rate in LUNG cancer
[9] = TSA expression rate in MELANOMA
[10] = TSA expression rate in PROSTATE cancer
[11] = TSA expression rate in BLADDER cancer
[12] = TSA expression rate in Cervical cancer
[13] = TSA expression rate in GASTRIC cancer
[14] = TSA expression rate in PEDIATRIC
[15] = TSA expression rate in LEUKEMIAS

O=C(c1cc(Cc2n[nH]c(=O)c3ccccc23)ccc1F)N1CCN(C(=O)C2CC2)CC1 [Olaparib]
SUM of lesions (% Δ from BL) [1, 3]: −66.3%
TL1 (% Δ from BL) [1, 3]: −56.1%
TL2 (% Δ from BL) [1, 3]: −100.0%
TL3 (% Δ from BL) [1, 3]: −59.4%
TL4 (% Δ from BL) [1, 3]: −65.8%
SUM of lesions (% Δ from BL) [1, 4]: −76.0%
TL1 (% Δ from BL) [1, 4]: −44.4%
TL2 (% Δ from BL) [1, 4]: −100.0%
TL3 (% Δ from BL) [1, 4]: −62.3%
TL4 (% Δ from BL) [1, 4]: −100.0%

CC[C@@]1(O)C(=O)OCc2c1cc1n(c2=O)Cc2cc3c(CN(C)C)c(O)ccc3nc2-1 [TOPO protocol]
SUM of lesions (% Δ from BL) [1, 5]: −68.9%
TL1 (% Δ from BL) [1, 5]: −44.8%
TL2 (% Δ from BL) [1, 5]: −47.1%
TL3 (% Δ from BL) [1, 5]: −62.0%
TL4 (% Δ from BL) [1, 5]: −100.0%

BAGE-1 (RLMKEESPVVSWRLEPEDGTALCFIF; UniProt Q13072 18-43, looked up)
TSA Expression Rate (ER) (TSA; BREAST): 9%
Expression Rate (ER) % (TSA; TSA expression rate in CRC): 0%
Expression Rate (ER) % (TSA; [6]): 6%
Expression Rate (ER) % (TSA; [7]): 6%
Expression Rate (ER) % (TSA; TSA expression rate in Kidney): 0%
Expression Rate (ER) % (TSA; [8]): 10%
Expression Rate (ER) % (TSA; [9]): 26%
Expression Rate (ER) % (TSA; [10]): 0%

BAGE-5 (RLMKEESPVVSWRLEPEDGTALCFIF; UniProt Q86Y27 18-43, looked up)
Expression Rate (ER) % (TSA; [9]): 9%

CASC5
TSA Expression Rate (ER) (TSA; LUNG): 41%
TSA Expression Rate (ER) (TSA; PANCREATIC): 27%

CDCA1
TSA Expression Rate (ER) (TSA; BREAST): 64%
TSA Expression Rate (ER) (TSA; HCC): 100%
TSA Expression Rate (ER) (TSA; LUNG): 85%
Expression Rate (ER) % (TSA; [11]): 100%
Expression Rate (ER) % (TSA; TSA expression rate in CRC): 40%
Expression Rate (ER) % (TSA; [12]): 18%
Expression Rate (ER) % (TSA; [6]): 22%
Expression Rate (ER) % (TSA; [13]): 0%
Expression Rate (ER) % (TSA; TSA expression rate in Kidney): 100%
Expression Rate (ER) % (TSA; [10]): 85%

DBPC
TSA Expression Rate (ER) (TSA; BREAST): 50%
TSA Expression Rate (ER) (TSA; HCC): 40%
TSA Expression Rate (ER) (TSA; LUNG): 30%
TSA Expression Rate (ER) (TSA; OVARIAN): 20%
TSA Expression Rate (ER) (TSA; PANCREATIC): 60%
Expression Rate (ER) % (TSA; TSA expression rate in CRC): 90%
Expression Rate (ER) % (TSA; [13]): 50%
Expression Rate (ER) % (TSA; TSA expression rate in Kidney): 10%
Expression Rate (ER) % (TSA; [10]): 40%

DCAF12
TSA Expression Rate (ER) (TSA; LUNG): 89%
Expression Rate (ER) % (TSA; [10]): 59%

DKK1
TSA Expression Rate (ER) (TSA; PANCREATIC): 84%

DMRT1
Expression Rate (ER) % (TSA; [10]): 24%

EPHA2
TSA Expression Rate (ER) (TSA; BRAIN): 95%
Expression Rate (ER) % (TSA; [14]): 100%

EZH2
TSA Expression Rate (ER) (TSA; BRAIN): 100%

Her2/neu peptide vaccine (p688) (RRLLQETEL; UniProt P04626 688-696, looked up, fragment)
IRR [2]: 31%

Her2/neu peptide vaccine (p971) (ELVSEFSRM; UniProt P04626 971-979, looked up, fragment)
IRR [2]: 54%

Iplilimumab (NYESO-1 specific response)
IRR [2]: 72%
ORR ([2]; proportion of subjects with objective response (complete and partial response) after vaccination): 25%

JARID1B
TSA Expression Rate (ER) (TSA; BREAST): 76%
TSA Expression Rate (ER) (TSA; HCC): 29%
TSA Expression Rate (ER) (TSA; LUNG): 55%
TSA Expression Rate (ER) (TSA; OVARIAN): 71%
Expression Rate (ER) % (TSA; [15]): 60%
Expression Rate (ER) % (TSA; [9]): 100%
Expression Rate (ER) % (TSA; [10]): 100%

LDHC
TSA Expression Rate (ER) (TSA; BREAST): 35%
TSA Expression Rate (ER) (TSA; LUNG): 29%
TSA Expression Rate (ER) (TSA; OVARIAN): 43%
TSA Expression Rate (ER) (TSA; THYROID): 25%
Expression Rate (ER) % (TSA; TSA expression rate in CRC): 15%
Expression Rate (ER) % (TSA; [12]): 83%
Expression Rate (ER) % (TSA; [7]): 0%
Expression Rate (ER) % (TSA; TSA expression rate in Kidney): 57%
Expression Rate (ER) % (TSA; [9]): 44%
Expression Rate (ER) % (TSA; [10]): 38%

MAGE-A10
TSA Expression Rate (ER) (TSA; BREAST): 34%
TSA Expression Rate (ER) (TSA; HCC): 15%
TSA Expression Rate (ER) (TSA; LUNG): 24%
TSA Expression Rate (ER) (TSA; OVARIAN): 38%
TSA Expression Rate (ER) (TSA; PANCREATIC): 1%
TSA Expression Rate (ER) (TSA; THYROID): 2%
Expression Rate (ER) % (TSA; [11]): 28%
Expression Rate (ER) % (TSA; TSA expression rate in CRC): 3%
Expression Rate (ER) % (TSA; [12]): 0%
Expression Rate (ER) % (TSA; [6]): 27%
Expression Rate (ER) % (TSA; [13]): 30%
Expression Rate (ER) % (TSA; [7]): 12%
Expression Rate (ER) % (TSA; TSA expression rate in Kidney): 1%
Expression Rate (ER) % (TSA; [15]): 0%
Expression Rate (ER) % (TSA; [9]): 45%
Expression Rate (ER) % (TSA; [14]): 33%
Expression Rate (ER) % (TSA; [10]): 10%

MPHOSPH1
Expression Rate (ER) % (TSA; [11]): 90%

MSLN
TSA Expression Rate (ER) (TSA; PANCREATIC): 96%

MUC-1
Expression Rate (ER) % (TSA; [10]): 34%

NKX3.1
TSA Expression Rate (ER) (TSA; THYROID): 0%
Expression Rate (ER) % (TSA; [10]): 70%

OIP5
Expression Rate (ER) % (TSA; [13]): 48%
Expression Rate (ER) % (TSA; [7]): 12%

PRAME
TSA Expression Rate (ER) (TSA; BRAIN): 56%
TSA Expression Rate (ER) (TSA; BREAST): 49%
TSA Expression Rate (ER) (TSA; LUNG): 63%
TSA Expression Rate (ER) (TSA; OVARIAN): 59%
TSA Expression Rate (ER) (TSA; THYROID): 60%
Expression Rate (ER) % (TSA; [11]): 19%
Expression Rate (ER) % (TSA; TSA expression rate in CRC): 4%
Expression Rate (ER) % (TSA; [13]): 21%
Expression Rate (ER) % (TSA; [7]): 61%
Expression Rate (ER) % (TSA; TSA expression rate in Kidney): 40%
Expression Rate (ER) % (TSA; [15]): 23%
Expression Rate (ER) % (TSA; [9]): 90%
Expression Rate (ER) % (TSA; [14]): 75%
Expression Rate (ER) % (TSA; [10]): 10%

SOX-6
TSA Expression Rate (ER) (TSA; BRAIN): 60%

SPINLW1
TSA Expression Rate (ER) (TSA; BRAIN): 47%

SSX-1
TSA Expression Rate (ER) (TSA; BRAIN): 0%
TSA Expression Rate (ER) (TSA; BREAST): 9%
TSA Expression Rate (ER) (TSA; HCC): 69%
TSA Expression Rate (ER) (TSA; OVARIAN): 2%
TSA Expression Rate (ER) (TSA; PANCREATIC): 0%
TSA Expression Rate (ER) (TSA; THYROID): 0%
Expression Rate (ER) % (TSA; [11]): 7%
Expression Rate (ER) % (TSA; TSA expression rate in CRC): 2%
Expression Rate (ER) % (TSA; [12]): 4%
Expression Rate (ER) % (TSA; [6]): 0%
Expression Rate (ER) % (TSA; [13]): 13%
Expression Rate (ER) % (TSA; [7]): 40%
Expression Rate (ER) % (TSA; TSA expression rate in Kidney): 0%
Expression Rate (ER) % (TSA; [15]): 31%
Expression Rate (ER) % (TSA; [8]): 8%
Expression Rate (ER) % (TSA; TSA expression rate in LYMPHOMAS): 6%
Expression Rate (ER) % (TSA; [9]): 25%
Expression Rate (ER) % (TSA; [14]): 76%
Expression Rate (ER) % (TSA; [10]): 7%

SSX-7
TSA Expression Rate (ER) (TSA; BRAIN): 0%

SYCE1
Expression Rate (ER) % (TSA; [8]): 11%

TDRD4
TSA Expression Rate (ER) (TSA; HCC): 14%

TEX15
TSA Expression Rate (ER) (TSA; BREAST): 0%
TSA Expression Rate (ER) (TSA; LUNG): 21%
TSA Expression Rate (ER) (TSA; THYROID): 0%
Expression Rate (ER) % (TSA; [11]): 21%
Expression Rate (ER) % (TSA; TSA expression rate in CRC): 0%
Expression Rate (ER) % (TSA; [6]): 20%
Expression Rate (ER) % (TSA; [7]): 11%
Expression Rate (ER) % (TSA; TSA expression rate in Kidney): 33%
Expression Rate (ER) % (TSA; [9]): 27%
Expression Rate (ER) % (TSA; [10]): 13%

TSGA10
TSA Expression Rate (ER) (TSA; BRAIN): 83%
TSA Expression Rate (ER) (TSA; BREAST): 70%
TSA Expression Rate (ER) (TSA; HCC): 20%
TSA Expression Rate (ER) (TSA; OVARIAN): 35%
Expression Rate (ER) % (TSA; [11]): 38%
Expression Rate (ER) % (TSA; TSA expression rate in CRC): 5%
Expression Rate (ER) % (TSA; [9]): 25%
Expression Rate (ER) % (TSA; [10]): 15%

WT1
TSA Expression Rate (ER) (TSA; BRAIN): 81%
TSA Expression Rate (ER) (TSA; BREAST): 7%
TSA Expression Rate (ER) (TSA; HCC): 86%
TSA Expression Rate (ER) (TSA; OVARIAN): 63%
TSA Expression Rate (ER) (TSA; PANCREATIC): 72%
TSA Expression Rate (ER) (TSA; THYROID): 97%
Expression Rate (ER) % (TSA; TSA expression rate in CRC): 91%
Expression Rate (ER) % (TSA; [12]): 5%
Expression Rate (ER) % (TSA; [6]): 88%
